Test results published in patent US7183387 (Genentech, dated 2007).
Blank lines part the entries; values can stand above or below the binder they belong to.

How the values were obtained:
[1] = target: T1, human FcγRIIIA-V158 α subunit extracellular domain-His6-GST fusion (human, UniProt P08637 17-208); test: ELISA, IgG monomer, receptor coated
T1 construct: ECD-6His-GST fusion made in 293 cells; also called FcγRIIIA-Val158; not shown: glutathione S transferase (GST)

[2] = target: T2, human FcγRIIIA-F158 α subunit extracellular domain-His6-GST fusion (human, UniProt P08637 17-208); test: ELISA, IgG complex, receptor coated
T2 construct: ECD-6His-GST fusion made in 293 cells; also called FcγRIIIA-Phe158; not shown: glutathione S transferase (GST)
T2 sequence (P08637 other isoform, or with tags, fused parts or gaps, form in doubt): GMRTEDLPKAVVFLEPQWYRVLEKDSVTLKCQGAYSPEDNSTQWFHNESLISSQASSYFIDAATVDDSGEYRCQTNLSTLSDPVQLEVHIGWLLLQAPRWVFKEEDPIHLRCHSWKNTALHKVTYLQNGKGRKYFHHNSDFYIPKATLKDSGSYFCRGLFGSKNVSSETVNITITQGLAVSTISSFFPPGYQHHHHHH

[3] = target: T3, human FcγRIIA-R131 α subunit extracellular domain-His6-GST fusion (human, UniProt P12318 34-217); test: ELISA, IgG complex, receptor coated
T3 construct: ECD-6His-GST fusion made in 293 cells; also called FcγRIIA-Arg131; not shown: glutathione S transferase (GST)
T3 sequence: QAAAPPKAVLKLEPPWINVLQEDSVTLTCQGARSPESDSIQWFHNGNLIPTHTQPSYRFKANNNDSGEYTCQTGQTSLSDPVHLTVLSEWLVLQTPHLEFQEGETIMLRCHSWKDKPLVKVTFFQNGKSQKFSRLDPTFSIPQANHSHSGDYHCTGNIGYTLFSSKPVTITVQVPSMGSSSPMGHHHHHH

[4] = target: T1, human FcγRIIIA-V158 α subunit …; test: ELISA, IgG complex, receptor coated

T1 sequence (P08637 other isoform, or with tags, fused parts or gaps, form in doubt): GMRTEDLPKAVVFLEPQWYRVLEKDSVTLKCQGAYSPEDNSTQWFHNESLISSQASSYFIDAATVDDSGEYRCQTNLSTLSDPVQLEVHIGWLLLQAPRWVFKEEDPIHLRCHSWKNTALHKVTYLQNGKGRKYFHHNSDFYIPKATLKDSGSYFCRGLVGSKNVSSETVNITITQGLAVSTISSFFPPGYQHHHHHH

ratio of binding, variant/native IgG1 (mean) [1]: 1.6 ratio | ratio of binding, variant/native IgG1 (mean) [2]: 1.39 ratio | ratio of binding, variant/native IgG1 (mean) [3]: 1.01 ratio | ratio of binding, variant/native IgG1 (mean) [4]: 1.07 ratio
B1: anti-IgE E27 IgG1 variant K334(353)A (antibody)
heavy: not shown
light: DIQLTQSPSSLSASVGDRVTITCRASKPVDGEGDSYLNWYQQKPGKAPKLLIYAASYLESGVPSRFSGSGSGTDFTLTISSLQPEDFATYYCQQSHEDPYTFGQGTKVEIKRTVAAPSVFIFPPSDEQLKSGTASVVCLLNNFYPREAKVQWKVDNALQSGNSQESVTEQDSKDSTYSLSSTLTLSKADYEKHKVYACEVTHQGLSSPVTKSFNRGEC
notes: Fc variant of E27; also called IG2 55; G55

ratio of binding, variant/native IgG1 (mean) [1]: 0.39 ratio | ratio of binding, variant/native IgG1 (mean) [2]: 0.33 ratio | ratio of binding, variant/native IgG1 (mean) [4]: 0.88 ratio
B2: anti-IgE E27 IgG1 variant S298(317)V (antibody)
heavy: not shown
light: B1 light
notes: Fc variant of E27; also called IG2 218

ratio of binding, variant/native IgG1 (mean) [1]: 0.88 ratio | ratio of binding, variant/native IgG1 (mean) [2]: 0.68 ratio | ratio of binding, variant/native IgG1 (mean) [3]: 1.15 ratio
B3: anti-IgE E27 IgG1 variant K334(353)R (antibody)
heavy: not shown
light: B1 light
notes: Fc variant of E27; also called Lys334Arg

ratio of binding, variant/native IgG1 (mean) [1]: 0.94 ratio | ratio of binding, variant/native IgG1 (mean) [2]: 0.9 ratio | ratio of binding, variant/native IgG1 (mean) [3]: 0.27 ratio
B4: anti-IgE E27 IgG1 variant R292(309)A (antibody)
heavy: not shown
light: B1 light
notes: Fc variant of E27; also called IG2 31; G31

ratio of binding, variant/native IgG1 (mean) [1]: 1.07 ratio | ratio of binding, variant/native IgG1 (mean) [2]: 0.94 ratio | ratio of binding, variant/native IgG1 (mean) [4]: 0.99 ratio
B5: anti-IgE E27 IgG1 variant E333(352)S (antibody)
heavy: not shown
light: B1 light
notes: Fc variant of E27; also called IG2 143

ratio of binding, variant/native IgG1 (mean) [1]: 1.23 ratio | ratio of binding, variant/native IgG1 (mean) [2]: 1.05 ratio | ratio of binding, variant/native IgG1 (mean) [3]: 0.87 ratio
B6: anti-IgE E27 IgG1 variant E333(352)G (antibody)
heavy: not shown
light: B1 light
notes: Fc variant of E27; also called IG2 178

ratio of binding, variant/native IgG1 (mean) [1]: 1.1 ratio | ratio of binding, variant/native IgG1 (mean) [2]: 0.92 ratio | ratio of binding, variant/native IgG1 (mean) [3]: 0.98 ratio
B7: anti-IgE E27 IgG1 variant E380(405)A/L309(328)A (antibody)
heavy: not shown
light: B1 light
notes: Fc variant of E27; also called IG2 271; Glu380Ala/Leu309Ala

ratio of binding, variant/native IgG1 (mean) [1]: 1.21 ratio | ratio of binding, variant/native IgG1 (mean) [2]: 0.92 ratio | ratio of binding, variant/native IgG1 (mean) [3]: 0.21 ratio
B8: anti-IgE E27 IgG1 variant R292(309)H (antibody)
heavy: not shown
light: B1 light
notes: Fc variant of E27; also called IG2 81

ratio of binding, variant/native IgG1 (mean) [1]: 1.13 ratio | ratio of binding, variant/native IgG1 (mean) [2]: 1.28 ratio | ratio of binding, variant/native IgG1 (mean) [3]: 1.29 ratio | ratio of binding, variant/native IgG1 (mean) [4]: 1.12 ratio
B9: anti-IgE E27 IgG1 variant K290(307)A (antibody)
heavy: not shown
light: B1 light
notes: Fc variant of E27; also called IG2 30; G30

ratio of binding, variant/native IgG1 (mean) [1]: 0.24 ratio | ratio of binding, variant/native IgG1 (mean) [2]: 0.23 ratio | ratio of binding, variant/native IgG1 (mean) [3]: 0.86 ratio
B10: anti-IgE E27 IgG1 variant P331(350)N (antibody)
heavy: not shown
light: B1 light
notes: Fc variant of E27; also called IG2 199

ratio of binding, variant/native IgG1 (mean) [1]: 0.83 ratio | ratio of binding, variant/native IgG1 (mean) [2]: 0.85 ratio | ratio of binding, variant/native IgG1 (mean) [3]: 1.03 ratio
B11: anti-IgE E27 IgG1 variant E283(300)S (antibody)
heavy: not shown
light: B1 light
notes: Fc variant of E27; also called IG2 227

ratio of binding, variant/native IgG1 (mean) [2]: 1.66 ratio | ratio of binding, variant/native IgG1 (mean) [3]: 0.35 ratio | ratio of binding, variant/native IgG1 (mean) [4]: 1.19 ratio
B12: anti-IgE E27 IgG1 variant S298(317)A/E333(352)A/K334(353)A (antibody)
heavy: EVQLVESGGGLVQPGGSLRLSCAVSGYSITSGYSWNWIRQAPGKGLEWVASIKYSGETKYNPSVKGRITISRDDSKNTFYLQMNSLRAEDTAVYYCARGSHYFGHWHFAVWGQGTLVTVSSASTKGPSVFPLAPSSKSTSGGTAALGCLVKDYFPEPVTVSWNSGALTSGVHTFPAVLQSSGLYSLSSVVTVPSSSLGTQTYICNVNHKPSNTKVDKKVEPKSCDKTHTCPPCPAPELLGGPSVFLFPPKPKDTLMISRTPEVTCVVVDVSHEDPEVKFNWYVDGVEVHNAKTKPREEQYNATYRVVSVLTVLHQDWLNGKEYKCKVSNKALPAPIAATISKAKGQPREPQVYTLPPSREEMTKNQVSLTCLVKGFYPSDIAVEWESNGQPENNYKTTPPVLDSDGSFFLYSKLTVDKSRWQQGNVFSCSVMHEALHNHYTQKSLSLSPGK
light: B1 light
notes: Fc variant of E27; also called IG2 110; Ser298Ala/Glu333Ala/Lys334Ala

ratio of binding, variant/native IgG1 (mean) [1]: 1.29 ratio | ratio of binding, variant/native IgG1 (mean) [2]: 1.27 ratio | ratio of binding, variant/native IgG1 (mean) [3]: 0.92 ratio | ratio of binding, variant/native IgG1 (mean) [4]: 1.1 ratio
B13: anti-IgE E27 IgG1 variant E333(352)A (antibody)
heavy: not shown
light: B1 light
notes: Fc variant of E27; also called IG2 54; G54

ratio of binding, variant/native IgG1 (mean) [1]: 0.68 ratio | ratio of binding, variant/native IgG1 (mean) [2]: 0.66 ratio | ratio of binding, variant/native IgG1 (mean) [3]: 0.87 ratio
B14: anti-IgE E27 IgG1 variant E294(311)A (antibody)
heavy: not shown
light: B1 light
notes: Fc variant of E27; also called IG2 33

ratio of binding, variant/native IgG1 (mean) [1]: 0.56 ratio | ratio of binding, variant/native IgG1 (mean) [2]: 0.45 ratio | ratio of binding, variant/native IgG1 (mean) [3]: 0.47 ratio
B15: anti-IgE E27 IgG1 variant R292(309)Q (antibody)
heavy: not shown
light: B1 light
notes: Fc variant of E27; also called IG2 82

ratio of binding, variant/native IgG1 (mean) [1]: 1.64 ratio | ratio of binding, variant/native IgG1 (mean) [2]: 1.15 ratio | ratio of binding, variant/native IgG1 (mean) [3]: 0.71 ratio
B16: anti-IgE E27 IgG1 variant R292(309)K (antibody)
heavy: not shown
light: B1 light
notes: Fc variant of E27; also called IG2 80

ratio of binding, variant/native IgG1 (mean) [1]: 0.81 ratio | ratio of binding, variant/native IgG1 (mean) [2]: 0.85 ratio | ratio of binding, variant/native IgG1 (mean) [4]: 0.88 ratio
B17: anti-IgE E27 IgG1 variant E333(352)K (antibody)
heavy: not shown
light: B1 light
notes: Fc variant of E27

ratio of binding, variant/native IgG1 (mean) [1]: 0.83 ratio | ratio of binding, variant/native IgG1 (mean) [2]: 0.84 ratio | ratio of binding, variant/native IgG1 (mean) [3]: 0.75 ratio | ratio of binding, variant/native IgG1 (mean) [4]: 0.92 ratio
B18: anti-IgE E27 IgG1 variant E333(352)R (antibody)
heavy: not shown
light: B1 light
notes: Fc variant of E27

ratio of binding, variant/native IgG1 (mean) [1]: 0.91 ratio | ratio of binding, variant/native IgG1 (mean) [2]: 0.88 ratio | ratio of binding, variant/native IgG1 (mean) [3]: 0.54 ratio
B19: anti-IgE E27 IgG1 variant R292(309)N (antibody)
heavy: not shown
light: B1 light
notes: Fc variant of E27; also called IG2 83

ratio of binding, variant/native IgG1 (mean) [1]: 0.97 ratio | ratio of binding, variant/native IgG1 (mean) [2]: 0.99 ratio | ratio of binding, variant/native IgG1 (mean) [3]: 0.85 ratio | ratio of binding, variant/native IgG1 (mean) [4]: 1 ratio
B20: anti-IgE E27 IgG1 variant E293(310)Q (antibody)
heavy: not shown
light: B1 light
notes: Fc variant of E27

ratio of binding, variant/native IgG1 (mean) [1]: 1 ratio | ratio of binding, variant/native IgG1 (mean) [2]: 1.1 ratio | ratio of binding, variant/native IgG1 (mean) [3]: 0.7 ratio | ratio of binding, variant/native IgG1 (mean) [4]: 1.05 ratio
B21: anti-IgE E27 IgG1 variant E333(352)Q (antibody)
heavy: not shown
light: B1 light
notes: Fc variant of E27

ratio of binding, variant/native IgG1 (mean) [1]: 0.26 ratio | ratio of binding, variant/native IgG1 (mean) [2]: 0.14 ratio | ratio of binding, variant/native IgG1 (mean) [3]: 0.37 ratio
B22: anti-IgE E27 IgG1 variant E294(311)D (antibody)
heavy: not shown
light: B1 light
notes: Fc variant of E27; also called IG2 174

ratio of binding, variant/native IgG1 (mean) [1]: 1.7 ratio | ratio of binding, variant/native IgG1 (mean) [2]: 1.26 ratio | ratio of binding, variant/native IgG1 (mean) [4]: 1 ratio
B23: anti-IgE E27 IgG1 variant E333(352)D (antibody)
heavy: not shown
light: B1 light
notes: Fc variant of E27; also called Glu333Asp

ratio of binding, variant/native IgG1 (mean) [1]: 0.36 ratio | ratio of binding, variant/native IgG1 (mean) [2]: 0.42 ratio | ratio of binding, variant/native IgG1 (mean) [3]: 1.06 ratio
B24: anti-IgE E27 IgG1 variant P331(350)E (antibody)
heavy: not shown
light: B1 light
notes: Fc variant of E27; also called IG2 200

ratio of binding, variant/native IgG1 (mean) [1]: 0.56 ratio | ratio of binding, variant/native IgG1 (mean) [2]: 0.56 ratio | ratio of binding, variant/native IgG1 (mean) [3]: 0.59 ratio | ratio of binding, variant/native IgG1 (mean) [4]: 0.64 ratio
B25: anti-IgE E27 IgG1 variant E333(352)N (antibody)
heavy: not shown
light: B1 light
notes: Fc variant of E27; also called Glu333Asn

ratio of binding, variant/native IgG1 (mean) [1]: 0.79 ratio | ratio of binding, variant/native IgG1 (mean) [2]: 0.84 ratio | ratio of binding, variant/native IgG1 (mean) [3]: 1.01 ratio
B26: anti-IgE E27 IgG1 variant E294(311)Q (antibody)
heavy: not shown
light: B1 light
notes: Fc variant of E27; also called IG2 173

ratio of binding, variant/native IgG1 (mean) [1]: 0.26 ratio | ratio of binding, variant/native IgG1 (mean) [2]: 0.33 ratio | ratio of binding, variant/native IgG1 (mean) [3]: 0.94 ratio
B27: anti-IgE E27 IgG1 variant P331(350)K (antibody)
heavy: not shown
light: B1 light
notes: Fc variant of E27

ratio of binding, variant/native IgG1 (mean) [1]: 0.54 ratio | ratio of binding, variant/native IgG1 (mean) [2]: 0.86 ratio | ratio of binding, variant/native IgG1 (mean) [3]: 1 ratio
B28: anti-IgE E27 IgG1 variant P331(350)S (antibody)
heavy: not shown
light: B1 light
notes: Fc variant of E27; also called IG2 198; Pro331Ser

ratio of binding, variant/native IgG1 (mean) [2]: 0.09 ratio | ratio of binding, variant/native IgG1 (mean) [3]: 0.07 ratio | ratio of binding, variant/native IgG1 (mean) [4]: 0.01 ratio
B29: anti-IgE E27 IgG1 variant D265(278)A (antibody)
heavy: not shown
light: B1 light
notes: Fc variant of E27; also called IG2 14; G14

ratio of binding, variant/native IgG1 (mean) [2]: 1.13 ratio | ratio of binding, variant/native IgG1 (mean) [3]: 0.51 ratio | ratio of binding, variant/native IgG1 (mean) [4]: 1.07 ratio
B30: anti-IgE E27 IgG1 variant K334(353)D (antibody)
heavy: not shown
light: B1 light
notes: Fc variant of E27; also called IG2 140
